Measurements as given in US20120027773A1 (AVEO PHARMACEUTICALS, published 2012).

B1: RON6 (antibody, V domains shown)
VH: QVQLVQSGPEVKKSGSSVKVSCKASGGTFSSDAITWVRQAPGQGLEWMGGIIPILGMANYAQKFQGRVTITADKSTNTAYMELSSLRSEDTAVYFCARVADYYGLGTYYWYFDLWGRGTLVTVSS
VL: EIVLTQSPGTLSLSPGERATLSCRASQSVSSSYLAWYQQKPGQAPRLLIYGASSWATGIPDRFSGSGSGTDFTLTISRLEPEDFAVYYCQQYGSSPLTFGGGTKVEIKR
B2: 18H09 (antibody, mouse IgG1, V domains shown)
VH: EVQLQESGPSLVKPSQTLSLTCYVTGDSITSDYWNWIRKFPGNKLEYMGYISYSGSTYYNPSLKSRISITRDTSKNQFYLRLNSVTTEDTATYYCARTHILTIAYWGQGTLVTVSA
VL: QAVVTQESALTTSPGETVTLTCRSSAGAVTTSNFANWVQEKPDHLFTGLIGDTNIRAPGVPARFSGSLIGDKAALTITGAQTEDEAIYFCALWYSNHYWVFGGGTKLTVLG
notes: Murine hybridoma monoclonal, IgG1/lambda (IGLC1); also called antibody 18H09
B3: 17F06 (antibody, mouse IgG2a, V domains shown)
VH: EVKLVESGGGLVKPGASLKLSCAASGFIFSSYGMSWVRQTSDKRLEWVASISSGGGTTYYLDTVKGRFTISRENAKDTLYLQMSGLKSEDTALYYCTRGQWLLKFAYWGQGTLVTVSA
VL: QLVLTQSSSASFSLGASAKLTCTLSSQHTTYTIEWYQQLPLKPPKYVMELKKDGSHSTGVGIPDRFSGSSSGADRYLTISNIQPEDEAIYICGVGETIEDQFVYVFGGGTKVTVLG
notes: Murine hybridoma monoclonal, IgG2a/lambda (IGLC2); also called antibody 17F06

How the values were obtained:
[1] = molecular target: T1, recombinant human RON SEMA and PSI domains (human, UniProt Q04912 25-571); assay: SPR, Ab captured on anti-human IgG Fc, 37 C; 37 C, n=1
T1 construct: domain: SEMA+PSI; Commercial protein (R&D Systems); also called rhRON SEMA+PSI; hRON SEMA+PSI

[2] = molecular target: T1, recombinant human RON SEMA and PSI …; assay: SPR, Ab captured on anti-human IgG Fc, 25 C
[3] = molecular target: T1, recombinant human RON SEMA and PSI …; assay: SPR, Ab captured on anti-human IgG Fc, 37 C
[4] = molecular target: T1, recombinant human RON SEMA and PSI …; assay: ECL competition, MSP binding to coated hRON SEMA+PSI; competitor MSP; average n=3
Protocol: (§1) The biochemical neutralization assay measures inhibition of MSP binding to hRON by antibodies in hybridoma supernatants, using electrochemiluminescence (ECL). MA2400 96-well high binding plates (Meso Scale Discovery) were coated with 25 μl of 0.42 μg/mL hRON SEMA+PSI (an N-terminal portion of the ECD of hRON; R&D Systems) in PBS for one hour at room temperature with agitation. The plates were washed four times with PBS+0.1% Tween-20 (PBST), and blocked with 150 μl of charcoal-stripped fetal bovine serum (FBS) (Gibco). The hybridoma supernatant were added and incubated for 45 minutes at room temperature. After incubation, 5 μl of MSP (3 μg/mL) in charcoal stripped FBS was added to each well, and incubated for 45 minutes. The plate was washed four times with PBST, and 25 μl of 1 μg/mL biotinylated anti-MSP antibody (R&D Systems) was added to the plates for one hour at room temperature with agitation. The plates were washed four times with PBST, and incubated with 25 μl of 1 μg/mL ST-streptavidin (Meso Scale Discovery) for one hour at room temperature with agitation. The plates were washed four times with PBST, and 150 μl read buffer (Meso Scale Discovery) was added to each well before the plates were analyzed on a Sector Imager 2400 (Meso Scale Discovery) instrument. Antibodies 07F01, 18H09 and 29B06 each blocked MSP binding to hRON SEMA+PSI in this neutralization assay.
(§2) Antibodies 07F01, 12B11, 17F06, 18H09, and 29B06 were tested for inhibition of MSP binding to hRON SEMA+PSI, as measured by electrochemiluminescence (ECL) assay as described in Example 3. The antibodies (concentration range: 0.006-10 μg/mL) were incubated for 45 minutes at room temperature.

[5] = molecular target: T1, recombinant human RON SEMA and PSI …; assay: ECL competition, MSP binding to coated hRON SEMA+PSI; competitor MSP; average
Protocol: as §1, §2

[6] = molecular target: T2, human wild-type RON (cell surface) (human, UniProt Q04912 25-1400); assay: cell-based or functional assay
[7] = molecular target: T1, recombinant human RON SEMA and PSI …; assay: SPR, Ab captured on anti-mouse IgG, 37 C, AVG
Protocol: (§3) The binding affinities and kinetics of binding of antibodies 07F01, 29B06, 17F06, 18H09, and 12B11 to recombinant human RON-ECD/mFc fusion protein (rhRON ECD/mFc) and recombinant human RON SEMA and PSI domains (rhRON SEMA+PSI) (R&D Systems, Inc., Minneapolis, Minn.) were measured by surface plasmon resonance, using a Biacore T100 instrument (GE Healthcare, Piscataway, N.J.).
(§4) Rabbit anti-mouse IgGs (GE Healthcare) were immobilized on carboxymethylated dextran CM4 sensor chips (GE Healthcare) by amine coupling, according to a standard protocol. Analyses were performed at 25° C. and 37° C., using PBS containing 0.05% surfactant P20 as running buffer. The antibodies were captured in individual flow cells at a flow rate of 10 μl/min. Injection time was varied for each antibody to yield an Rmax between 30 and 60 RU. 250 μg/mL mouse Fc were injected at 30 μl/min for 120 seconds to block non-specific binding of antibodies to Fc portion of the protein when needed. Buffer, rhRon ECD/mFc or rhRON SEMA+PSI diluted in running buffer was injected sequentially over a reference surface (no antibody captured) and the active surface (antibody to be tested) for 300 seconds at 60 μl/minute. The dissociation phase was monitored for up to 3600 seconds. The surface was then regenerated with two 60-second injections of 10 mM Glycine-HCl, pH 1.7, at a flow rate of 60 μl/min. The rhRON ECD/mFc or rhRON SEMA+PSI concentration range tested was 0.625 nM to 20 nM.

[8] = molecular target: T1, recombinant human RON SEMA and PSI …; assay: SPR, Ab captured on anti-mouse IgG, 25 C, AVG
Protocol: as §3, §4

[9] = molecular target: T2, human wild-type RON (cell surface); assay: FACS, 10 ug/ml antibody, PC3 cells, 4 C
Protocol: (§5) Binding to cell surface wild-type RON and delta 160 RON at 4° C. was determined for antibodies 07F01, 12B11, 17F06, 18H09, and 29B06, using FACS. Cells expressing wild-type RON (PC3), and cells expressing delta 160 RON (HT-29), were harvested using cell dissociation buffer (Invitrogen), washed twice with FACS buffer (0.5% BSA PBS) and treated with CytoQ Antibody diluent and FC receptor block (Innovex). Purified antibodies were diluted at a concentration of 10 μg/ml, in FACS buffer. Cells were incubated with 100 μl of antibody mix for one hour, washed with FACS buffer three times, and incubated for 45 minutes with goat anti-mouse PE conjugated antibody (Jackson Immunoresearch Laboratories). Cells were washed three times with FACS buffer, resuspended in 300 μl of FACS buffer and analyzed using a Beckman Coulter Cytomics FC 500 FACS instrument.

[10] = molecular target: T3, delta 160 RON variant (cell surface) (human, UniProt Q04912 25-1400); assay: FACS, 10 ug/ml antibody, HT-29 cells, 4 C
T3 construct: whole, on cells; Splice variant; also called delta 160 variant
Protocol: as §5

[11] = molecular target: T1, recombinant human RON SEMA and PSI …; assay: ECL competition assay: antibody titrated on plate-coated hRON SEMA+PSI; blocked ligand MSP, detected with biotinylated anti-MSP antibody
Protocol: as §1, §2

[12] = molecular target: T4, recombinant human RON-ECD/mFc fusion protein (human, UniProt Q04912 25-957); assay: SPR, Ab captured on anti-mouse IgG, 37 C, n=1
T4 construct: extracellular domain; also called rhRON ECD/mFc; rhRon ECD/mFc; not shown: THXmFC: Thrombin/His tag/Factor Xa-AJ mouse IgG-Fc
Protocol: as §3, §4
(§6) Kinetic parameters were determined using the kinetic function of the BIAevaluation software (GE Healthcare) with double reference subtraction. Kinetic parameters for each antibody, kₐ (association rate constant), kd (dissociation rate constant) and KD (equilibrium dissociation constant) were determined.

[13] = molecular target: T4, recombinant human RON-ECD/mFc fusion …; assay: SPR, Ab captured on anti-mouse IgG, 25 C, AVG
Protocol: as §3, §4, §6

[14] = molecular target: T2, human wild-type RON (cell surface); assay: cell-based or functional assay; remark: listed apart in the source
[15] = molecular target: T4, recombinant human RON-ECD/mFc fusion …; assay: SPR, Ab captured on anti-mouse IgG, 25 C, AVG; * Outside instrument limit of detection
Protocol: as §3
(§7) Rabbit anti-mouse IgGs (GE Healthcare) were immobilized on carboxymethylated dextran CM4 sensor chips (GE Healthcare) by amine coupling, according to a standard protocol. Analyses were performed at 25° C. and 37° C., using PBS containing 0.05% surfactant P20 as running buffer. The antibodies were captured in individual flow cells at a flow rate of 10 μl/min. Injection time was varied for each antibody to yield an Rmax between 30 and 60 RU. 250 μg/mL mouse Fc were injected at 30 μl/min for 120 seconds to block non-specific binding of antibodies to Fc portion of the protein when needed. […] The dissociation phase was monitored for up to 3600 seconds. […]
as §6

[16] = molecular target: T4, recombinant human RON-ECD/mFc fusion …; assay: SPR, Ab captured on anti-mouse IgG, 25 C, AVG; * Outside instrument limit of detection; 25 C, AVG of n=3
Protocol: as §3, §7, §6

[17] = molecular target: T4, recombinant human RON-ECD/mFc fusion …; assay: SPR, Ab captured on anti-mouse IgG, 37 C, AVG
Protocol: as §3, §4, §6

Binder | Maximum Neutralization (%) [5] [%] | Percent Inhibition of MSP-induced HPAF-II cell migration, antibody 2 ug/ml [6] [%] | Kd [7] [nM] | koff [7] [s⁻¹] | kon [7] [M⁻¹ s⁻¹] | Kd [8] [nM] | koff [8] [s⁻¹] | kon [8] [M⁻¹ s⁻¹] | PC3 % cell surface binding [9] [%] | HT-29 % cell surface binding [10] [%] | kon [13] [M⁻¹ s⁻¹] | Mean IC50 (nM), inhibition of MSP-dependent ERK phosphorylation, T47D cells [14] [nM] | also measured
B1 | – | – | – | – | – | – | – | – | – | – | – | – | kon [1]: 1.9e+08 M⁻¹ s⁻¹; Kd [2]: 1.1 nM; koff [2]: 0.0026 s⁻¹; kon [2]: 2.3e+06 M⁻¹ s⁻¹; Kd [3]: 1 nM; koff [3]: 0.19 s⁻¹
B2 | 86.9 | 107 | 0.22 | 0.00012 | 580000 | 0.0086 | 3.8e-06 | 440000 | 99 | 98.3 | 330000 | 0.71 | IC50 [4]: 0.91 nM; IC50 (read off the curve) [11]: ~0.7 nM; Kd [12]: 0.4 nM; koff [12]: 0.0007 s⁻¹; kon [12]: 1.8e+06 M⁻¹ s⁻¹; Kd [13]: 0.22 nM; koff [13]: 5.7e-05 s⁻¹
B3 | 7.9 | 70.7 | 0.13 | 2.1e-05 | 260000 | 0.009 | 1.4e-06 | 190000 | 99.1 | 99 | 170000 | 0.96 | Kd [15]: < 0.0588 nM; koff [16]: < 1e-05 s⁻¹; Kd [17]: 0.21 nM; koff [17]: 2.4e-05 s⁻¹; kon [17]: 140000 M⁻¹ s⁻¹
